US20090176264A1

Key:
[1] = biological target: BSA (control) (bovine) (UniProt P02769); assay: ELISA, BSA control wells, sFlt at 1800 ng/mL, detected with RD-1 + RD-2 anti-sFlt
[2] = biological target: BSA (control) (bovine) (UniProt P02769); assay: ELISA, BSA control wells, sFlt at 200 ng/mL, detected with RD-1 + RD-2 anti-sFlt
[3] = biological target: BSA (control) (bovine) (UniProt P02769); assay: ELISA, BSA control wells, sFlt at 600 ng/mL, detected with RD-1 + RD-2 anti-sFlt
[4] = biological target: BSA (control) (bovine) (UniProt P02769); assay: ELISA, BSA control wells, sFlt at 200 ng/mL, detected with RD-1 + RD-2 anti-sFlt; remark: listed apart in the source
[5] = biological target: BSA (control) (bovine) (UniProt P02769); assay: ELISA, BSA control wells, sFlt at 600 ng/mL, detected with RD-1 + RD-2 anti-sFlt; remark: listed apart in the source
[6] = biological target: BSA (control) (bovine) (UniProt P02769); assay: ELISA, BSA control wells, sFlt at 66.67 ng/mL, detected with RD-1 + RD-2 anti-sFlt
[7] = biological target: BSA (control) (bovine) (UniProt P02769); assay: as above; remark: listed apart in the source

Sequence of Full length sFlt (soluble fms-like tyrosine kinase 1, sFlt-1), Scios Inc. Lot# 9225-89 (from UniProt P17948 27-656) (receptor) (P17948 other isoform, or with tags, fused parts or gaps limits assumed): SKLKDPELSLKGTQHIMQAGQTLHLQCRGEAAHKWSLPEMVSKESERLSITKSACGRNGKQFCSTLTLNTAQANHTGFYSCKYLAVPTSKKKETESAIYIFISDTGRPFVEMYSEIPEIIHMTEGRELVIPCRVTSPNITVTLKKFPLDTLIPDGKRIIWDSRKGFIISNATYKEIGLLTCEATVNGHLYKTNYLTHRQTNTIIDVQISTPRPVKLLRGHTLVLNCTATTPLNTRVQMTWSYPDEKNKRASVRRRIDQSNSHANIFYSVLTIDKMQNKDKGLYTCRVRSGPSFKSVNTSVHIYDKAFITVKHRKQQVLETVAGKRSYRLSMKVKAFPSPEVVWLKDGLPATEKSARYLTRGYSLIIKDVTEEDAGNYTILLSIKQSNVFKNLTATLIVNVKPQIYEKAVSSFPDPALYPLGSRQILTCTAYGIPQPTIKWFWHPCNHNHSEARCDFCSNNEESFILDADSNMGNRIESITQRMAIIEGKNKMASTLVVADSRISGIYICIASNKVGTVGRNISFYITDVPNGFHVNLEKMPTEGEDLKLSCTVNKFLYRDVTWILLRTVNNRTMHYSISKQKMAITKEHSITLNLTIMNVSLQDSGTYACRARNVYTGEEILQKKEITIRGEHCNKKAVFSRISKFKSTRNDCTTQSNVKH
Sequence of BSA (control) (bovine) (P02769 25-607 limits assumed): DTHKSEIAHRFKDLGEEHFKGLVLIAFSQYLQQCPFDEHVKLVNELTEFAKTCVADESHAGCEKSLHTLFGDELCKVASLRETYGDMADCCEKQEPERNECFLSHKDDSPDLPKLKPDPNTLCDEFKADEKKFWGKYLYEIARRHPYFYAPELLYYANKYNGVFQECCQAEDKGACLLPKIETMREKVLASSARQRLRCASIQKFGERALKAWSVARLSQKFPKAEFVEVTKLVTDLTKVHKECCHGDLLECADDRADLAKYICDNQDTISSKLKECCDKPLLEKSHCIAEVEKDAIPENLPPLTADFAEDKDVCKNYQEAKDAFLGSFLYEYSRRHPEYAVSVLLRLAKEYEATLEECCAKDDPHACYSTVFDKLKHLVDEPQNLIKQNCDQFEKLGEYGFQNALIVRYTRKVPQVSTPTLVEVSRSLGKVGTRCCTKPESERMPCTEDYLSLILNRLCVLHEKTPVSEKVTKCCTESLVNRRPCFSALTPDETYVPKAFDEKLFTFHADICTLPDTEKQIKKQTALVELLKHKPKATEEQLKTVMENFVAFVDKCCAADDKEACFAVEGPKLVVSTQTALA
Sequence of Full length sFlt (soluble fms-like tyrosine kinase 1, sFlt-1), Scios Inc. Lot# 9225-89 (from UniProt P17948 27-656) (P17948 other isoform, or with tags, fused parts or gaps limits assumed): as the sequence (P17948 other isoform, or with tags, fused parts or gaps limits assumed) above

| OD at 492 nm [1] | OD at 492 nm [2] | OD at 492 nm [3] | OD at 492 nm [4] | OD at 492 nm [5] | OD at 492 nm [6] | OD at 492 nm [7] | Substance |
| --- | --- | --- | --- | --- | --- | --- | --- |
| 0.004 OD | – | – | – | – | – | – | Full length sFlt (soluble fms-like tyrosine kinase 1, sFlt-1), Scios Inc. Lot# 9225-89 (from UniProt P17948 27-656) |
| 0.009 OD | 0.01 OD | 0.006 OD | 0.005 OD | 0.008 OD | 0.02 OD | 0.003 OD | Full length sFlt (soluble fms-like tyrosine kinase 1, sFlt-1), Scios Inc. Lot# 9225-89 (from UniProt P17948 27-656) (receptor) |
